Data taken from IntAct's records for PubMed 17301792.

B1: Translationally-controlled tumor protein homolog (Drosophila melanogaster (Fruit fly)), Q9VGS2 (parent)
chain: MKIYKDIITGDEMFADTYKMKLVDDVIYEVYGKLITRQGDDIKLEGANASAEEADEGTDITSESGVDVVLNHRLTECFAFGDKKSYTLYLKDYMKKVLAKLEEKSPDQVDIFKTNMNKAMKDILGRFKELQFFTGESMDCDGMVALVEYREINGDSVPVLMFFKHGLEEEKC
partner: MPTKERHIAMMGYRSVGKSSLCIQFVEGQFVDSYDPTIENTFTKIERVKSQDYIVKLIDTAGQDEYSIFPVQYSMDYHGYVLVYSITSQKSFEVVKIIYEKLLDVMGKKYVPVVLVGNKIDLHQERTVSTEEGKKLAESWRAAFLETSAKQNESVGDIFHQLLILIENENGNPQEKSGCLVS

Variants of: B1
Details: with rheb_drome Rheb

| Variant | effect of a mutation on the interaction |
| --- | --- |
| MKIYKDIITGDVMFADTYKMKLVDDVIYEVYGKLITRQGDDIKLEGANASAEEADEGTDITSESGVDVVLNHRLTECFAFGDKKSYTLYLKDYMKKVLAKLEEKSPDQVDIFKTNMNKAMKDILGRFKELQFFTGESMDCDGMVALVEYREINGDSVPVLMFFKHGLEEEKC | decreasing interaction strength |

Variants of: B1
Details: with rheb_drome Rheb
Remark: another data set of the same source

| Variant | effect of a mutation on the interaction |
| --- | --- |
| MKIYKDIITGDVMFADTYKMKLVDDVIYEVYGKLITRQGDDIKLEGANASAEEADEGTDITSESGVDVVLNHRLTECFAFGDKKSYTLYLKDYMKKVLAKLEEKSPDQVDIFKTNMNKAMKDILGRFKELQFFTGESMDCDGMVALVEYREINGDSVPVLMFFKHGLEEEKC | disrupting interaction strength |
